According to the supplement of paper PMC7877785:
± gives the uncertainty stated by the source.

Assay: self-splicing fitness, log relative to wild type (ln ratio); higher = more splicing; Tetrahymena group I intron in knt gene, E. coli kanamycin selection, DiMSum; sequences stand for … in CUCUCU…GGAGGGAAAAGUUAUCAGGCAUGCACCUGGUAGCUAGUCUUUAAACCAAUAGAUUGCAUCGGUUUAAAAGGCAAGACCGUCAAAUUGCGGGAAAGGGGUCAACAGCCGUUCAGUACCAAGUCUCAGGGGAAACUUUGAGAUGGCCUUGCAAAGGGUAUGGUAAUAAGCUGACGGACAUGGUCCUAACCACGCAGCCAAGUCCUAAGUCAACAGAUCUUCUGUUGAUAUGGAUGCAGUUCACAGACUAAAUGUCGGUCGGGGAAGAUGUAUUCUUCUCAUAAGAUAUAGUCGGACCUCUCCUUAAUGGGAGCUAGCGGAUGAAGUGAUGCAACACUGGAGCCGCUGGGAACUAAUUUGUAUGCGAAAGUAUAUUGAUUAGUUUUGGAGUACUCGUGGUCG
In short: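 A randomised library covering all eight P1ex-region intron nucleotides was built with the intron in the knt kanamycin-resistance gene on pET-22b(+) and held in E. coli BL21(DE3). Cells were grown overnight at 37°C or 30°C on LB agar, with or without 25 μg/mL kanamycin, plus 100 μg/mL carbenicillin, 50 μM IPTG and 0.2% rhamnose, and pooled colonies were amplicon-sequenced on an Illumina HiSeq 2500. DiMSum fitness is the error-weighted combination of wild-type-normalised replicate fold changes, kanamycin versus none.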

Sequence | self-splicing fitness (ln) (30 °C) | self-splicing fitness (ln) (37 °C)
GUCGAGCAAUAUUACGAUUC | -1.64 ± 0.24 | -0.941 ± 0.26
GUCGAGCAAUAUUACGAUUU | -0.559 ± 0.2 | -0.273 ± 0.19
GUCGAGCAAUAUUACGCAUA | -2.14 ± 0.18 | -1.6 ± 0.16
GUCGAGCAAUAUUACGCGCU | -2.6 ± 0.3 | -1.17 ± 0.32
GUCGAGCAAUAUUACGCGGA | -3.08 ± 0.29 | -1.25 ± 0.19
GUCGAGCAAUAUUACGGAGG | -3.76 ± 0.39 | -2.17 ± 0.23
GUCGAGCAAUAUUACGGAUA |  | -1.25 ± 0.27
GUCGAGCAAUAUUACGGUAG | -2.02 ± 0.11 | -2.54 ± 0.25
GUCGAGCAAUAUUACGGUCA | -1.37 ± 0.26 | -0.499 ± 0.24
GUCGAGCAAUAUUACGUCAU | -1.8 ± 0.12 | -1.13 ± 0.1
GUCGAGCAAUAUUACGUCUC | -1.76 ± 0.42 | -0.346 ± 0.27
GUCGAGCAAUAUUACGUGAA | -1.6 ± 0.12 | -1.86 ± 0.17
GUCGAGCAAUAUUACGUUAU | -0.538 ± 0.12 | -2.13 ± 0.21
GUCGAGCAAUAUUACGUUCU | -1.32 ± 0.15 | 0.217 ± 0.13
GUCGAGCAAUAUUACGUUGC | -2.19 ± 0.2 | -2.25 ± 0.41
GUCUAGCAAUAUUACGAAGU | -1.23 ± 0.19 | -0.107 ± 0.14
GUCUAGCAAUAUUACGAAUC | -1.33 ± 0.19 | 1.43 ± 0.2
GUCUAGCAAUAUUACGACCG | -1.42 ± 0.4 | -2.17 ± 0.33
GUCUAGCAAUAUUACGAGCG | -2.05 ± 0.14 | -0.599 ± 0.16
GUCUAGCAAUAUUACGCAAA | -1.12 ± 0.13 | -0.541 ± 0.12
GUCUAGCAAUAUUACGCAAU | -0.524 ± 0.082 | -0.156 ± 0.082
GUCUAGCAAUAUUACGCACA | -0.72 ± 0.12 | -0.113 ± 0.14
GUCUAGCAAUAUUACGCACC | -1.81 ± 0.11 | -0.328 ± 0.14
GUCUAGCAAUAUUACGCAGA |  | -2.48 ± 0.31
GUCUAGCAAUAUUACGCCGC | -3.25 ± 0.38 | 

Sequence | self-splicing fitness (ln) (30 °C) | self-splicing fitness (ln) (37 °C)
GUCUAGCAAUAUUACGCCUA | -0.955 ± 0.31 | -0.323 ± 0.27
GUCUAGCAAUAUUACGCGAA | -1.36 ± 0.23 | -0.134 ± 0.19
GUCUAGCAAUAUUACGCGAU | -1.94 ± 0.21 | -2.29 ± 0.23
GUCUAGCAAUAUUACGCGGU | -1.78 ± 0.26 | -1.04 ± 0.38
GUCUAGCAAUAUUACGCUCG | -0.688 ± 0.23 | -0.634 ± 0.27
GUCUAGCAAUAUUACGCUGU | -0.966 ± 0.09 | -0.224 ± 0.094
GUCUAGCAAUAUUACGGCCG |  | -1.78 ± 0.35
GUCUAGCAAUAUUACGGCGC | -0.167 ± 0.1 | 0.985 ± 0.12
GUCUAGCAAUAUUACGGCUC | -0.737 ± 0.086 | 0.57 ± 0.12
GUCUAGCAAUAUUACGGUCG | -1.06 ± 0.089 | -0.996 ± 0.11
GUCUAGCAAUAUUACGGUGA | -2.81 ± 0.25 | -0.385 ± 0.21
GUCUAGCAAUAUUACGUCGC | -0.459 ± 0.2 | 0.215 ± 0.19
GUCUAGCAAUAUUACGUGCU | -3.08 ± 0.23 | -1.87 ± 0.39
GUCUAGCAAUAUUACGUUCC | -1.14 ± 0.16 | -0.649 ± 0.2
GUCUAGCAAUAUUACGUUUG | -2.11 ± 0.088 | -1.62 ± 0.11
GUGAAGCAAUAUUACGAACU | -2.15 ± 0.1 | -0.516 ± 0.095
GUGAAGCAAUAUUACGACCC | -1.04 ± 0.43 | 0.469 ± 0.33
GUGAAGCAAUAUUACGACCG | -1.63 ± 0.23 | 0.706 ± 0.28
GUGAAGCAAUAUUACGCCAA | -0.702 ± 0.13 | -1.88 ± 0.16
GUGAAGCAAUAUUACGCCGU | -1.23 ± 0.13 | -0.0879 ± 0.21
GUGAAGCAAUAUUACGCGAC | -0.927 ± 0.21 | -0.922 ± 0.26
GUGAAGCAAUAUUACGGACG | 0.234 ± 0.081 | 0.144 ± 0.092
GUGAAGCAAUAUUACGGACU | -0.0214 ± 0.15 | -0.194 ± 0.19
GUGAAGCAAUAUUACGGGAA | -2.11 ± 0.12 | -0.793 ± 0.11
GUGAAGCAAUAUUACGGGCA | -0.763 ± 0.064 | -0.106 ± 0.083

Sequence | self-splicing fitness (ln) (30 °C) | self-splicing fitness (ln) (37 °C)
GUGAAGCAAUAUUACGGUGG | -1.97 ± 0.098 | -1.78 ± 0.16
GUGAAGCAAUAUUACGGUGU | -1.8 ± 0.063 | -0.777 ± 0.082
GUGAAGCAAUAUUACGGUUU | -2.86 ± 0.084 | -0.906 ± 0.11
GUGAAGCAAUAUUACGUACC | -1.07 ± 0.2 | 
GUGAAGCAAUAUUACGUAGC | -3.31 ± 0.15 | -1.84 ± 0.18
GUGAAGCAAUAUUACGUCGA | -0.469 ± 0.077 | 0.751 ± 0.12
GUGAAGCAAUAUUACGUCUC | -0.941 ± 0.11 | -0.553 ± 0.12
GUGAAGCAAUAUUACGUGUA | -1.11 ± 0.069 | -0.878 ± 0.087
GUGAAGCAAUAUUACGUUCC | -1.67 ± 0.17 | -1.16 ± 0.2
GUGAAGCAAUAUUACGUUUC | -3.08 ± 0.17 | -2.53 ± 0.34
GUGCAGCAAUAUUACGAAGG | -2.59 ± 0.19 | -1.53 ± 0.23
GUGCAGCAAUAUUACGACGU | -0.779 ± 0.11 | 0.0794 ± 0.13
GUGCAGCAAUAUUACGAGCA | -3.43 ± 0.31 | -1.18 ± 0.15
GUGCAGCAAUAUUACGAUAC | -1.58 ± 0.2 | -0.0479 ± 0.17
GUGCAGCAAUAUUACGCAGU | -3.58 ± 0.27 | -2.4 ± 0.28
GUGCAGCAAUAUUACGCAUA | -1.7 ± 0.18 | -0.534 ± 0.14
GUGCAGCAAUAUUACGCUUA | -0.938 ± 0.092 | 0.781 ± 0.15
GUGCAGCAAUAUUACGCUUG | -3.09 ± 0.21 | -2.02 ± 0.27
GUGCAGCAAUAUUACGGACA | -1.58 ± 0.14 | -0.853 ± 0.16
GUGCAGCAAUAUUACGGAGA |  | -1.86 ± 0.38
GUGCAGCAAUAUUACGGAGC | -1.85 ± 0.2 | -1.97 ± 0.19
GUGCAGCAAUAUUACGGCAA | 0.24 ± 0.12 | 0.291 ± 0.15
GUGCAGCAAUAUUACGGGGA | -4.16 ± 0.3 | -2.8 ± 0.23
GUGCAGCAAUAUUACGGUAU | -2.16 ± 0.12 | -1.53 ± 0.15
GUGCAGCAAUAUUACGGUCU | -0.887 ± 0.081 | 0.217 ± 0.093

Sequence | self-splicing fitness (ln) (30 °C) | self-splicing fitness (ln) (37 °C)
GUGCAGCAAUAUUACGGUUC | -0.353 ± 0.075 | -0.684 ± 0.11
GUGCAGCAAUAUUACGUAGC | -1.44 ± 0.17 | -0.976 ± 0.16
GUGCAGCAAUAUUACGUAGU | -1.37 ± 0.083 | -0.784 ± 0.12
GUGCAGCAAUAUUACGUCUC | -0.469 ± 0.084 | 0.48 ± 0.11
GUGCAGCAAUAUUACGUGAC | -1.86 ± 0.14 | -1.33 ± 0.14
GUGCAGCAAUAUUACGUGCU | -3.49 ± 0.32 | -2.35 ± 0.35
GUGCAGCAAUAUUACGUGGC | -3.55 ± 0.27 | -1.8 ± 0.15
GUGCAGCAAUAUUACGUUGU | -3.71 ± 0.17 | -2.56 ± 0.17
GUGCAGCAAUAUUACGUUUA | -0.737 ± 0.11 | -0.75 ± 0.12
GUGGAGCAAUAUUACGAACA | -2.19 ± 0.46 | -0.866 ± 0.45
GUGGAGCAAUAUUACGAACG | -2.43 ± 0.43 | -1.53 ± 0.41
GUGGAGCAAUAUUACGAAUC | -3.4 ± 0.24 | -1.43 ± 0.26
GUGGAGCAAUAUUACGACUU | -2.79 ± 0.34 | -0.283 ± 0.24
GUGGAGCAAUAUUACGAGCA | -2.49 ± 0.34 | -1.93 ± 0.39
GUGGAGCAAUAUUACGAGUG |  | -1.74 ± 0.36
GUGGAGCAAUAUUACGAUCC | -2.49 ± 0.2 | -1.13 ± 0.28
GUGGAGCAAUAUUACGCCCU | -1.79 ± 0.32 | -1.87 ± 0.26
GUGGAGCAAUAUUACGCCUU | -2.3 ± 0.31 | -1.09 ± 0.22
GUGGAGCAAUAUUACGCGAA | -3 ± 0.39 | -1.09 ± 0.27
GUGGAGCAAUAUUACGCUAA | -2.72 ± 0.25 | -1.6 ± 0.19
GUGGAGCAAUAUUACGCUAG | -3.24 ± 0.19 | -2.36 ± 0.2
GUGGAGCAAUAUUACGCUCA | -1.19 ± 0.26 | -1.1 ± 0.26
